Earlier results, collected in publication PMC5645029 (Journal of medicinal chemistry, 2017).

Legend:
[1] = molecular target: mMC1R (Mus musculus, UniProt Q01727); conditions: read-out: Ki app at mMC1R; displacement of radiolabeled NDP-MSH; cited from earlier work
[2] = molecular target: mMC3R (Mus musculus, UniProt P33033); conditions: read-out: Ki app at mMC3R; displacement of radiolabeled NDP-MSH; cited from earlier work
[3] = molecular target: mMC4R (Mus musculus, UniProt P56450); conditions: read-out: Ki app at mMC4R; displacement of radiolabeled NDP-MSH; cited from earlier work
Chain of mMC4R (P56450 whole entry): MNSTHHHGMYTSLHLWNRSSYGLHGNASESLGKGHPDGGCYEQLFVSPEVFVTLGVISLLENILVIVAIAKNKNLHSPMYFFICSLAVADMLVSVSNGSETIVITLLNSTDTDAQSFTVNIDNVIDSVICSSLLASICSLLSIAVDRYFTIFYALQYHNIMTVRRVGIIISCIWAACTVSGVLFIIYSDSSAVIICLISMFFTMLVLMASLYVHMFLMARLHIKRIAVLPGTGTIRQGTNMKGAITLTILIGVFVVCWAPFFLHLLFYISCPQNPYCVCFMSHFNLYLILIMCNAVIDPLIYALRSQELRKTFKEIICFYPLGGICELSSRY

Chain of mMC3R (P33033 whole entry): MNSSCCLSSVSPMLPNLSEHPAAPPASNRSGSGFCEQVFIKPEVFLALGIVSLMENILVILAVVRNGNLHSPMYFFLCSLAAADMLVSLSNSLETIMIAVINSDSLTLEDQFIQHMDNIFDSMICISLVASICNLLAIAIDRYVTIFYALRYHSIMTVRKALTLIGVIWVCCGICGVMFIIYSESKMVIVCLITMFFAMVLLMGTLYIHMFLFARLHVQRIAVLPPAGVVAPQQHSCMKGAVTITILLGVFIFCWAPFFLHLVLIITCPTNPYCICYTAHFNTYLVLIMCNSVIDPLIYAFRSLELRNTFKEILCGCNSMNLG
Chain of mMC1R (Q01727 whole entry): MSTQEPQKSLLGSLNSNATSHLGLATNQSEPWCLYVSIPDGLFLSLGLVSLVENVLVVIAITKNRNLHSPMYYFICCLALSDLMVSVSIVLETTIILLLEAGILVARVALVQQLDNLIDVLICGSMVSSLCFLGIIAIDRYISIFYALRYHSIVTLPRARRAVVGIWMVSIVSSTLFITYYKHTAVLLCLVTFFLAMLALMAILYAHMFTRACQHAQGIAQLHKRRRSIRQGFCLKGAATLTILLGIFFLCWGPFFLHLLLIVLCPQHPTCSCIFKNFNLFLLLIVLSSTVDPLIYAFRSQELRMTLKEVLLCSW

B1: mASP: recombinant mouse agouti-signaling protein (protein, UniProt Q03288 23-131, looked up)
Agouti-signaling protein: HLALEETLGDDRSLRSNSSMNSLDFSSVSIVALNKKSKKISRKEAEKRKRSSKKKASMKKVARPPPPSPCVATRDSCKPPAPACCDPCASCQCRFFGSACTCRVLNPNC
Ki [1]: 2.6 nM
Ki [2]: 190 nM
Ki [3]: 54 nM
